Tests used:
Details in all cases: both partners purified
recombinant CCT4 = target: T1, recombinant CCT4 (Homo sapiens, UniProt P50991); assay: BLI; Octet RED384, 25 °C, 20 mM HEPES pH 7.5, 150 mM NaCl, 0.1% BSA; biotinylated CCT5 on streptavidin sensors; Nb18 40 μM to 39 nM; steady-state fit
T1 construct: CCT4 subunit of TRiC, expressed recombinantly; Construct not described

[1] = target: T2, recombinant human CCT5 homo-oligomer (hexadecameric form, CCT5_(16)) (Homo sapiens (Human)., UniProt P48643, biotin (for BLI)); assay: as above
T2 construct: it mentions that recombinant CCT5 was earlier made with a C-terminal His-tag; also called recombinant CCT5; overexpressed CCT5; source: E. coli, recombinant; copies: 16

[2] = target: T3, endogenous human TCP-1 ring complex (TRiC), CCT5 tagged with 3×FLAG/Spytag (human, UniProt P17987;P78371;P49368;P50991;P48643;P40227;Q99832;P50990); assay: cryo-EM structure; purified TRiC (1.5 mg/ml) premixed with Nb18 at 1:1 molar ratio, 1 mM ATP, 5 mM MgCl2, AlFx; closed and open states
T3 construct: CCT1 subunit of human TRiC; CCT2 subunit of human TRiC; CCT3 subunit of human TRiC; CCT4 subunit of human TRiC; CCT5 subunit of human TRiC, tag knocked into the genomic locus; CCT6 subunit of human TRiC; predominantly the CCT6A isoform by MS/MS and side-chain modelling; CCT7 subunit of human TRiC; CCT8 subunit of human TRiC; Hexadecamer of two back-to-back rings of eight paralogous subunits; also …

T1 sequence (P50991 whole entry): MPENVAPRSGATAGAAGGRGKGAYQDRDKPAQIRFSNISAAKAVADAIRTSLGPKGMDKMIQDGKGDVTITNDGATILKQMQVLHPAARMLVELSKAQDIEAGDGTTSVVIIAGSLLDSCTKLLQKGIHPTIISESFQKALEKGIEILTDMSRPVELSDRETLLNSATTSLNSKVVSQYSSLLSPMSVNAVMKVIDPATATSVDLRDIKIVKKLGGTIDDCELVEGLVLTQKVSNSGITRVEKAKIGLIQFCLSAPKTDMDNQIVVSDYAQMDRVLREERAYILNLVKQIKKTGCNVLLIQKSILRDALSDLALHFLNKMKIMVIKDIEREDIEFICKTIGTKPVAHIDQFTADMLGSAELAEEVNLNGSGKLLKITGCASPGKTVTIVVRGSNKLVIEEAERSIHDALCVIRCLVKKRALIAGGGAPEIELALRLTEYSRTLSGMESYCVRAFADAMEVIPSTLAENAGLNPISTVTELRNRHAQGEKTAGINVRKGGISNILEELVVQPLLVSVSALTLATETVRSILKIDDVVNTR
T2 sequence (P48643 whole entry): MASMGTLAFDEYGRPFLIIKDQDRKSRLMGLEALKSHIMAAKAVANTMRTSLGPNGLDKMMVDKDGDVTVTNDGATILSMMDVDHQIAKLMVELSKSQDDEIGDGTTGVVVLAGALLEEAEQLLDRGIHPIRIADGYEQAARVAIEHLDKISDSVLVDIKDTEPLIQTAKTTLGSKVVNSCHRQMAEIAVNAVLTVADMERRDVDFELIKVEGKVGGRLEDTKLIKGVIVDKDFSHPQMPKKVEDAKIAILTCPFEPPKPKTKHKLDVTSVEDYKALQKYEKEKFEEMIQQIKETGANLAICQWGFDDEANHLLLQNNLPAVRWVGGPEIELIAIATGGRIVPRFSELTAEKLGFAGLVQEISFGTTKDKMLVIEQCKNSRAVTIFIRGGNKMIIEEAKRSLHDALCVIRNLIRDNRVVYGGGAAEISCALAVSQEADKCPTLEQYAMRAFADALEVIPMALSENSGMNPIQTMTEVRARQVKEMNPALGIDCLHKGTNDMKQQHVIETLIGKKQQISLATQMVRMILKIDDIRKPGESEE

Kd [1]: 86 nM
stoichiometry N [2]: 2
B1: nanobody Nb18 (VHH)
VHH: QVQLVESGGGLVQAGGSLRLSCGASGTFFRINDMGWYRQASGKQRELVASITRGGTTDYADSVKGRFTISRDNAKNTVYLQMNSLKPEDTAVYYCKANRNWGREWDDYWGQGTQVTVSS
notes: Nb18 is modelled in the TRiC–Nb18 structure solved here (PDB 7NVL); llama nanobody raised against CCT5 homo-hexadecamer, in vector pMESy4; Starting model was a homology model on PDB 6QX4 chain C (another nanobody); also called CA14679; source: E. coli, purified (Ni-NTA, SEC)
binding result (recombinant CCT4): no binding (tested: Nb18 40 μM to 39 nM (methods))
